The results in this text go back to the DeepSol protein solubility set.

The series is described as follows: soluble on expression in E. coli; label from the status in PepcDB or PDB records.
With “MGSVNGAEALKALYALQEKDLEIDRLRAEAESPPEELVALQGQVEALEERLTNLLERRAELEREYNRHSLDIEDLSAKEKQAEEEQKRAQSAREQTQYENRIQQIKDRIRELLELSTPIMEAMENLEAEIAQVEEELAALRPRLQELLEANRARVAELEAAIAAKVEERTTMAAAIPAQILKEYEAIRRARRGTGVARMAAQGQVYRCEGCNVVLPTHVAQKVVRGQVVRCPSCGRLLWKGE”, the “soluble on expression in E. coli” value is given as “soluble”.
Turning to “MSLHSVAEREKRNAVHDSLTGLPNRKYCFELIDDRIQSGDPFSVILFDVVNFKQVNDAMGHFCGDQLLIQIGQRLQDKLKGSDKIFRVGGDEFVILTSSACEKTGTELIESLDCALSARFHLDEFQVSSRVVFGISTYPYDAISNDLLIKHADIAMYHAKRNGNLFAFYHDDMNVGAKYQLEISSRIQCALEKEEFQLYYQPLIDANTNLAVGFEAVIRWHDENGKTISPNDFIPIAERSNQVHNITMWVLGQVEKDLKTFIEKGIKLPVHVNLSAKDLSSNLLFHRLEKLLENNPQFADLISLEITETMAIDRVVELNPLIHQIKGLGIKISLDDFGTGYSSLSLLRDLPVDQIKIDRSFLCTANRTEGSRSIVENTIALAHGLGYSVVAEGVQDMDTLYFLRSRGCDIIQGYLFCPALPLNEVINWVNEHDDKQSHTRRAEGHHHHHH”, the “soluble on expression in E. coli” value is “soluble”.
The same measure for “MKYQVLLYYKYTTIEDPEAFAKEHLAFCKSLNLKGRILVATEGINGTLSGTVEETEKYMEAMQADERFKDTFFKIDPAEEMAFRKMFVRPRSELVALNLEEDVDPLETTGKYLEPAEFKEALLDEDTVVIDARNDYEYDLGHFRGAVRPDIRSFRELPQWIRENKEKFMDKKIVTYCTGGIRCEKFSGWLLKEGFEDVAQLHGGIANYGKNPETRGELWDGKMYVFDDRISVEINHVDKKVIGKDWFDGTPCERYINCANPECNRQILTSEENEHKHLGGCSLECSQHPANRYVKKHNLTEAEVAERLALLEAVEVLEHHHHHH”: “soluble”; for “MNKFKGNKVVLIGNGAVGSSYAFSLVNQSIVDELVIIDLDTEKVRGDVMDLKHATPYSPTTVRVKAGEYSDCHDADLVVICAGARQKPGETRLDLVSKNLKIFKSIVGEVMASKFDGIFLVATNPVDILAYATWKFSGLPKERVIGSGTILDSARFRLLLSEAFDVAPRSVDAQIIGEHGDTELPVWSHANIAGQPLKTLLEQRPEGKAQIEQIFVQTRDAAYDIIQAKGATYYGVAMGLARITEAIFRNEDAVLTVSALLEGEYEEEDVYIGVPAVINRNGIRNVVEIPLNDEEQSKFAHSAKTLKDIMAEAEELK”: “soluble”; for “MGSDKIHHHHHHMADNFLSQDEVDALLKGVSGEVDDAPQEAVDTGGPRPYNLATQERIVRGRMPTLEIINERFARLLRIGLYNFLRRGVEISVGPVRVSKYSEFIRNLVVPTNLNLVQFKPLRGTALMIFNPDLVFLMVDNLFGGDGRFHTRVEGRDFTQTEHRIIQRILNIVFEAYGKSWEPVYPIEFEFIRSEMNTQFANIATPNEVVVAVTFAIELGQISGEMHFCMPYSMIEPIKDLLTSSLQAENLEVDKRWIRLMRQQIQLAEVEIVADLGTAEVSLRDIVNLKVGDVIPLDIPPTIEAKVDGVPVMECAYGKFNGQYTLRVEKLLSTSAVEPKTGEQHV”: “not soluble”.
Take “VMNRMATALGGDYFDFISMPDGREVVFIGDVTGHDIQSSVVMSLVYGFLHHCALTVDDPLTMVSQLNRFLVRFADHGTELDHHFSSTLFLGIIDPASLRLEYVNAGHVPPLVLRRNSLHRLASTSPPVGFFAEAEVATGCFGLERGDRLLLYTDGILDASNGTETFGAERLDAFLTATGGSYTRFMDELAAALRDFGAGDPPDDDCSAIVIDI”: the “soluble on expression in E. coli” value is given as “not soluble”.
Consider “MGSDKIHHHHHHMARRYVVVGGGPAGVVCAETLRRQDAEGSITLVCAEPGPPYSRMAIPYAMSGKIDESGTWLRKDWGHYEALGIALLHDRVTGVDSGARQVRLESGAPLSYDALLIATGSSPARPRVPGLDLPGVHSCWTLEDLRRIDPLLKPGRRVLLLGAGFVSCIILQSLVQRGAKVTVSCGSSGRMVRSMMDETAGGMIMRWCRAKGVEVLTAGRPTAIEQRDSGLLVTLDSGKSAEADLVIVGTGVKTNTAFLEGSGIAIEDGIIVDQYLGTNVPGIWAAGDVAQGFNCCTGLTEVHAIQPTAVEHGRVAAMNMSGHPTPFGGSLSMNTLETLGLISCSFGQWMGAEGGKQVRMVDEEHFRYLRLEFQGDRLVGANTVGMTNEIGIIRGLIQTKLRLGEWLERLTQDPSRLAEAYVACAQGV”, for which the “soluble on expression in E. coli” value was “not soluble”.
In the case of “MGSDKIHHHHHHMKGRMPIIEALCAHVERNATSWHVPGHKNGTLFEGLPSFFEWDKTELRGLDDFHYPEEAIYEAKLLLRQVYEARDSHFLINGSTVGNWAMLAAVSQRGDRIYVQRNSHKSVFNALEWLGLSPILLGPEIDPSTGISGNVSRETLEEALTTFPGGVAVFLTSPTYYGETARIEELLPFTTASGIPLLIDEAHGAHFGEAFGVRSAFELGATAVVQSAHKTLPALTMGAWIHERFTDDERRRLTRALQAFQTSSPSYLLMASLDFAREYREKWTVSNMKSVRTSHEHLHQQINQLTDITAFTFDDWSRMILSCEEYSGSQLIEALADQGLDAEFALGPHVVCILPLRSIEPFEQDTWINQIQLAIETLKAEGIPDKRYMEQPFMGKIKVSSLACPLDQLEDAEAVEQTFEQSVGLVSLETIIPYPPGIPLILRGERITAEHITMIEHYINTSIHLQGGEFLHQGKLRVIQEGIRE”, the “soluble on expression in E. coli” value is given as “not soluble”.
With “MNRIEHYHDWLRDAHAMEKQAESMLESMASRIDNYPELRARIEQHLSETKNQIVQLETILDRNDISRSVIKDSMSKMAALGQSIGGIFPSDEIVKGSIGGYVFEQFEITCYTSLLAAAKNAGDTVSIPIIEAILNEEKQMADWLIQHIPQTTEKFLIRSETDGVEAKK”, the “soluble on expression in E. coli” value was “not soluble”.
“LHRILKVVFPKRKIVLWVIGGDLHLEVEKGRYRVDVLKSLQYLLVEGQAMKDALCGQGVENVKVMPNFKDISLFSPLHCHTPYTPSKVLRLVFFSRIMPDKGCDLILDLAHKLNERGYKDKFVIDFYGPIAPDYSKRFSSILDTLPNVHYQGTLD”: the “soluble on expression in E. coli” value is on record as “not soluble”.
The same measure for “PTVLAVTDEELTIRFVSPAIERVLGYDMESLVGTNWLDLVHPADTDRVLATLTGEREDDGTEYRFRNADGDWVWLETIVSSDTE”: “not soluble”; for “MAGASETYTHTLTDVPIDIKYDSDDYFISGYSYGADVYMSSVNRVKLDSEINEDTRKFKVVADLTNMKPGTHKVPLKVVNLPSGVNATVSPTTITVTMGKKKTKEFPLEHHHHHH”: “not soluble”; for “HDGIERELTIAVNNIIPGDLLVAFIRDFERQFTSTTLTVDLEVYNGCWDALYSKRADLVYGAPHAVPSSEGIISEPVGQMEWDFVVSPLHPLAAKRHPLENSELRHYPAVCIRDTSVNFPPMQAWLLEGQKPIFVPDFATAIALIE”: “not soluble”.
Turning to “MKKIMTIFGTRPEAIKMAPLVKALEQEKMLEPIVVVTAQHREMLDSVLSTFEIKPKYDLNIMKSGQTLSEITSKSITQLEQVIQLEKPDMVLVHGDTMTTFAGGLAAFYNQVPIGHVEAGLRSYDKYSPFPEEVNRQLVGVLADLHFAPTKNAASHLLSEGKYSESVVVTGNTAIDAMKYTVDDNYKSNIMDKYHDKKFILMTAHRRENIGKPMENIFKAVRRLIDEYTDLALVYPMHKNPKVREVAQKILGSHDRIELIEPLDVVDFHNFAKKSYFILTDSGGIQEEAPSFNKPVLVLRSVTERPEGVEAGTLKVIGTNKQNVYQAAKELIDDERLYHQMSEASNPYGDGFASERIVNHIKYYLNLITEKPSDF”, the “soluble on expression in E. coli” value is “not soluble”.
On to “SDLSWIKPGKVAWDWWNDWNLDGVDFVTGVNNPTYKAYIDFASANGIEYVILDEGWAVNLQADLMQVVKEIDLKELVDYAASKNVGIILWAGYHAFERDMENVCRHYAEMGVKGFKVDFMDRDDQEMTAFNYRAAEMCAKYKLILDLHGTHKPAG”, for which the “soluble on expression in E. coli” value is on record as “not soluble”.
With “MGGSHHHHHHGMASLAPGSSRVELFKRKNSTVPFEESNGTIRERVVHSFRIPTIVNVDGVMVAIADARYETSFDNSFIETAVKYSVDDGATWNTQIAIKNSRASSVSRVMDATVIVKGNKLYILVGSFNKTRNSWTQHRDGSDWEPLLVVGEVTKSAANGKTTATISWGKPVSLKPLFPAEFDGILTKEFIGGVGAAIVASNGNLVYPVQIADMGGRVFTKIMYSEDDGNTWKFAEGRSKFGCSEPAVLEWEGKLIINNRVDGNRRLVYESSDMGKTWVEALGTLSHVWTNSPTSNQQDCQSSFVAVTIEGKRVMLFTHPLNLKGRWMRDRLHLWMTDNQRIFDVGQISIGDENSGYSSVLYKDDKLYSLHEINTNDVYSLVFVRLIGELQLMKSVVRTWKEEDNHLASICTPVVPATPPSKGGCGAAVPTAGLVGFLSHSANGSVWEDVYRCVDANVANAERVPNGLKFNGVGGGAVWPVARQGQTRRYQFANYRFTLVATVTIDELPKGTSPLLGAGLEGPGDAKLLGLSYDKNRQWRPLYGAAPASPTGSWELHKKYHVVLTMADRQGSVYVDGQPLAGSGNTVVRGATLPDISHFYIGGPRSKGAPTDSRVTVTNVVLYNRRLNSSEIRTLFLSQDMIGTDGGAGTAA”, the “soluble on expression in E. coli” value was “soluble”.
To “MGSDKIHHHHHHMSTVQDASSVGSLFGAEAAKTSKSGSSDTQDRFLSLLVAQMKNQDPLNPLDNAEVTSQMAQLSTVEGIENMNKSLEALASSMGASQMSQAANLIGHAVLVPGNAVGPGQLENLMGFELTRPADKVTLDIHDAGGNLVRSVDLGPRDAGVNVVAWDGLTGSGAVAPAGAYSFKVSAVQGGQAQSSIALNVGLVNSVSQNSEGVQLNLAGNGSVGYADIREIF” belongs “not soluble”; to “MSLDVSVSATGHDNVTARHDSTLELTTDDFLTPAGDCILGIDADCSPAAFSDAFVAACQDAAATITLVLDTPQHRDEITGSGHPDLTFTNDRSMVGRTSTYVDDRTVFVDADKAAADVDREMVAALADGAPLTATLRVDEGHHHHHH”, “soluble”; to “MSLDKNSKSFGEANERIGNAIHHVCLNASDAKFIKSNIQESYQSWANVLYDRVFLNWGLCDKKIYRELSSLNFDFSTVGFFPHVYGQSLLFYLIRPLIKIHFFNKRLLDVGCGNGVGLKISSELLKTRYALGIDLVSKLVTNSNNSFYIEDKINYMQADAENMAIANESFDIVTNLESSHLYPQIEHFFSEVERVLAPNGFFCYADVHFDVKQQAQRLEAFVKTKKNLRIIEKHNITKMVQASIYQRLIVNEKGFYQLAQYLLGPDKIHYTSELANVASSMGLMFLPWWRIRFKNPALQALGKFARRCKHWNKKYYFYYLIQKIDSEGHHHHHH”, “not soluble”.
Take “MRITLIVLAALSFACTSCWFETGPDRFIYQLSWFCAESSCERGDDLNQFNRAETYGTDFAMSSTSASDLATSATIVVSATLGRDCRLVLDLVLFGHELDESILCFTPNGFELTVTIPDEDPETSSTWVVMAREL”: the “soluble on expression in E. coli” value is on record as “not soluble”.
In the case of “MGSSHHHHHHSSGLVPRGSHMLDFNIEGLIPKNMEKRGELVLNEYLKEIEDVFNHRKIPENGIDDEKIKLFLKFLSMMDTDKDPKSVRIGEREARTYSKIHEELSSGFCHGIGRSGNLVDPQPKASGASIMYALTNKILESFFKQLGLNVHAIATPISTGMSISLCLSAARKKYGSNVVIYPYASHKSPIKAVSFVGMNMRLVETVLDGDRVYVPVEDIENAIKKEIELGNRPCVLSTLTFFPPRNSDDIVEIAKICENYDIPHIINGAYAIQNNYYLEKLKKAFKYRVDAVVSSSDKNLLTPIGGGLVYSTDAEFIKEISLSYPGRASATPVVNTLVSLLSMGSKNYLELVKNQKNSKKLLDELLNDLSKKTGGKFLDVESPIASCISVNSDPVEIAAKLYNLRVTGPRGIKKTDHFGNCYLGTYTHDYIVMNAAIGVRTEDIVNSVSKLEKILL”, the “soluble on expression in E. coli” value is “soluble”.
